For orientation: Kd means the constant that tells how readily two partners part at equilibrium.

B1: Receptor comprising gp130 (B10G) and LIF-R (pHLIFR-65) co-expressed on COS-7 cells (receptor)
chain 1: ELLDPCGYISPESPVVQLHSNFTAVCVLKEKCMDYFHVNANYIVWKTNHFTIPKEQYTIINRTASSVTFTDIASLNIQLTCNILTFGQLEQNVYGITIISGLPPEKPKNLSCIVNEGKKMRCEWDGGRETHLETNFTLKSEWATHKFADCKAKRDTPTSCTVDYSTVYFVNIEVWVEAENALGKVTSDHINFDPVYKVKPNPPHNLSVINSEELSSILKLTWTNPSIKSVIILKYNIQYRTKDASTWSQIPPEDTASTRSSFTVQDLKPFTEYVFRIRCMKEDGKGYWSDWSEEASGITYEDRPSKAPSFWYKIDPSHTQGYRTVQLVWKTLPPFEANGKILDYEVTLTRWKSHLQNYTVNATKLTVNLTNDRYLATLTVRNLVGKSDAAVLTIPACDFQATHPVMDLKAFPKDNMLWVEWTTPRESVKKYILEWCVLSDKAPCITDWQQEDGTVHRTYLRGNLAESKCYLITVTPVYADGPGSPESIKAYLKQAPPSKGPTVRTKKVGKNEAVLEWDQLPVDVQNGFIRNYTIFYRTIIGNETAVNVDSSHTEYTLSSLTSDTLYMVRMAAYTDEGGKDGPEFTFTTPKFAQGEIEAIVVPVCLAFLLTTLLGVLFCFNKRDLIKKHIWPNVPDPSKSHIAQWSPHTPPRHNFNSKDQMYSDGNFTDVSVVEIEANDKKPFPEDL
chain 2: QKKGAPHDLKCVTNNLQVWNCSWKAPSGTGRGTDYEVCIENRSRSCYQLEKTSIKIPALSHGDYEITINSLHDFGSSTSKFTLNEQNVSLIPDTPEILNLSADFSTSTLYLKWNDRGSVFPHRSNVIWEIKVLRKESMELVKLVTHNTTLNGKDTLHHWSWASDMPLECAIHFVEIRCYIDNLHFSGLEEWSDWSPVKNISWIPDSQTKVFPQDKVILVGSDITFCCVSQEKVLSALIGHTNCPLIHLDGENVAIKIRNISVSASSGTNVVFTTEDNIFGTVIFAGYPPDTPQQLNCETHDLKEIICSWNPGRVTALVGPRATSYTLVESFSGKYVRLKRAEAPTNESYQLLFQMLPNQEIYNFTLNAHNPLGRSQSTILVNITEKVYPHTPTSFKVKDINSTAVKLSWHLPGNFAKINFLCEIEIKKSNSVQEQRNVTIKGVENSSYLVALDKLNPYTLYTFRIRCSTETFWKWSKWSNKKQHLTTEASPSKGPDTWREWSSDGKNLIIYWKPLPINEANGKILSYNVSCSSDEETQSLSEIPDPQHKAEIRLDKNDYIISVVAKNSVGSSPPSKIASMEIPNDDLKIEQVVGMGKGILLTWHYDPNMTCDYVIKWCNSSRSEPCLMDWRKVPSNSTETVIESDEFRPGIRYNFFLYGCRNQGYQLLRSMIGYIEELAPIVAPNFTVEDTSADSILVKWEDIPVEELRGFLRGYLFYFGKGERDTSKMRVLESGRSDIKVKNITDISQKTLRIADLQGKTSYHLVLRAYTDGGVGPEKSMYVVTKENSVGLIIAILIPVAVAVIVGVVTSILCYRKREWIKETFYPDIPNPENCKALQFQKSVCEGSSALKTLEMNPCTPNNVEVLETRSAFPKIEDTEIISPVAERPEDRSDAEPENHVVVSYCPPIIEEEIPNPAADEAGGTAQVIYIDVQSMYQPQAKPEEKKKKSRSSRSKI
B4: Recombinant human leukemia inhibitory factor (LIF) (ligand)
chain: not shown
modifications: radioiodinated (125I) where used as the labelled ligand; non-radiolabeled where used as competitor

The target of assay [1] is B4. Put plainly: Scatchard analysis of 125I-LIF binding to COS-7 cells co-transfected with B10G and pHLIFR-65 (curve A), phthalate oil separation. As for the experimental part: (§1) Host cells transfected with vector(s) encoding LIF-R or gp130 as described below were assayed for the ability to bind LIF. The host cells were the monkey kidney cell line designated COS-7, described by Glutzman, *Cell* 23:175 (1981). In separate transfections, COS-7 cells were transfected with the following combinations of vectors. The different types of transfected cells (and non-transfected control cells) are designated A–F as shown below, and the curves representing the LIF-binding assay data for each transfected or control cell type are also labeled A–F in FIG. 1.
(§2) Briefly, the COS-7 host cells were released from 10 cm tissue culture plates two days after transfection by incubation in non-enzymatic cell dissociation buffer (Sigma) at 37° C. for 30–60 minutes. Cells were then washed with the above-described binding medium and resuspended in binding medium at 5 ×10^6 cells/ml. 50 μl aliquots of the cells were incubated with serial dilutions of ^125I-LIF at room temperature for one hour with agitation (in the presence or absence of a 200-fold excess of unlabeled LIF) in a total volume of 150 μl. The unlabeled LIF allowed for calculation of the non-specific background binding of LIF. […]

In assay [2] the target is B4. The experiment in a line: Scatchard analysis of 125I-LIF binding to COS-7 cells transfected with pHLIFR-65 and CAV (curve B, site 2), phthalate oil separation. As to the method:
as §1, §2

The target in assay [3] is B4. Put plainly: 125I-LIF binding to COS-7 cells transfected with B10G and CAV (curve F against curve E), phthalate oil separation, Scatchard. As for the experimental part:
as §1, §2

The target of assay [4] is B1. The experiment in a line: Scatchard analysis of 125I-LIF binding to co-transfected COS-7 cells preincubated with oncostatin M as competitor (curve C). As for the experimental part:
as §1, §2

Consider B1, for which the Kd in assay [1] turned out to be 0.9 nM.

B2: Single-polypeptide chain human LIF-R encoded by pHLIFR-65, expressed on COS-7 cells (receptor)
chain: QKKGAPHDLKCVTNNLQVWNCSWKAPSGTGRGTDYEVCIENRSRSCYQLEKTSIKIPALSHGDYEITINSLHDFGSSTSKFTLNEQNVSLIPDTPEILNLSADFSTSTLYLKWNDRGSVFPHRSNVIWEIKVLRKESMELVKLVTHNTTLNGKDTLHHWSWASDMPLECAIHFVEIRCYIDNLHFSGLEEWSDWSPVKNISWIPDSQTKVFPQDKVILVGSDITFCCVSQEKVLSALIGHTNCPLIHLDGENVAIKIRNISVSASSGTNVVFTTEDNIFGTVIFAGYPPDTPQQLNCETHDLKEIICSWNPGRVTALVGPRATSYTLVESFSGKYVRLKRAEAPTNESYQLLFQMLPNQEIYNFTLNAHNPLGRSQSTILVNITEKVYPHTPTSFKVKDINSTAVKLSWHLPGNFAKINFLCEIEIKKSNSVQEQRNVTIKGVENSSYLVALDKLNPYTLYTFRIRCSTETFWKWSKWSNKKQHLTTEASPSKGPDTWREWSSDGKNLIIYWKPLPINEANGKILSYNVSCSSDEETQSLSEIPDPQHKAEIRLDKNDYIISVVAKNSVGSSPPSKIASMEIPNDDLKIEQVVGMGKGILLTWHYDPNMTCDYVIKWCNSSRSEPCLMDWRKVPSNSTETVIESDEFRPGIRYNFFLYGCRNQGYQLLRSMIGYIEELAPIVAPNFTVEDTSADSILVKWEDIPVEELRGFLRGYLFYFGKGERDTSKMRVLESGRSDIKVKNITDISQKTLRIADLQGKTSYHLVLRAYTDGGVGPEKSMYVVTKENSVGLIIAILIPVAVAVIVGVVTSILCYRKREWIKETFYPDIPNPENCKALQFQKSVCEGSSALKTLEMNPCTPNNVEVLETRSAFPKIEDTEIISPVAERPEDRSDAEPENHVVVSYCPPIIEEEIPNPAADEAGGTAQVIYIDVQSMYQPQAKPEEKKKKSRSSRSKI
Turning to B2, in assay [2], the Kd was 2.4 nM.

B3: Human gp130 encoded by plasmid B10G, expressed on COS-7 cells (receptor)
chain: ELLDPCGYISPESPVVQLHSNFTAVCVLKEKCMDYFHVNANYIVWKTNHFTIPKEQYTIINRTASSVTFTDIASLNIQLTCNILTFGQLEQNVYGITIISGLPPEKPKNLSCIVNEGKKMRCEWDGGRETHLETNFTLKSEWATHKFADCKAKRDTPTSCTVDYSTVYFVNIEVWVEAENALGKVTSDHINFDPVYKVKPNPPHNLSVINSEELSSILKLTWTNPSIKSVIILKYNIQYRTKDASTWSQIPPEDTASTRSSFTVQDLKPFTEYVFRIRCMKEDGKGYWSDWSEEASGITYEDRPSKAPSFWYKIDPSHTQGYRTVQLVWKTLPPFEANGKILDYEVTLTRWKSHLQNYTVNATKLTVNLTNDRYLATLTVRNLVGKSDAAVLTIPACDFQATHPVMDLKAFPKDNMLWVEWTTPRESVKKYILEWCVLSDKAPCITDWQQEDGTVHRTYLRGNLAESKCYLITVTPVYADGPGSPESIKAYLKQAPPSKGPTVRTKKVGKNEAVLEWDQLPVDVQNGFIRNYTIFYRTIIGNETAVNVDSSHTEYTLSSLTSDTLYMVRMAAYTDEGGKDGPEFTFTTPKFAQGEIEAIVVPVCLAFLLTTLLGVLFCFNKRDLIKKHIWPNVPDPSKSHIAQWSPHTPPRHNFNSKDQMYSDGNFTDVSVVEIEANDKKPFPEDL
As for B3, the binding result in assay [3] is listed as “no binding”.

In the case of B4, in assay [4], the “KD after preincubation of the cells with non-radiolabeled oncostatin M” value came to 4.2 nM.

The values above are taken from US5262522, “Receptor for oncostatin M and leukemia inhibitory factor” (Immunex Corporation, dated 1993).
